# Assay results from patent publication US20030166216.
# B1: human checkpoint kinase (hChk1) (enzyme)
# chain: MAVPFVEDWDLVQTLGEGAYGEVQLAVNRVTEEAVAVKIVDMKRAVDCPENIKKEICINKMLNHENVVKFYGHRREGNIQYLFLEYCSGGELFDRIEPDIGMPEPDAQRFFHQLMAGVVYLHGIGITHRDIKPENLLLDERDNLKISDFGLATVFRYNNRERLLNKMCGTLPYVAPELLKRREFHAEPVDVWSCGIVLTAMLAGELPWDQPSDSCQEYSDWKEKKTYLNPWKKIDSAPLALLHKILVENPSARITIPDIKKDRWYNKPLKKGAKRPRVTSGGVSESPSGFSKHIQSNLDFSPVNSASSEENVKYSSSQPEPRTGLSLWDTSPSYIDKLVQGISFSQPTCPDHMLLNSQLLGTPGSSQNPWQRLVKRMTRFFTKLDADKSYQCLKETCEKLGYQWKKSCMNQVTISTTDRRNNKLIFKVNLLEMDDKILVDFRLSKGDGLEFKRHFLKIKGKLIDIVSSQKVWLPAT
# modifications: possible His tag
# How the values were obtained:
# [1] = system: mylein basic protein (MBP)
# [2] = system: protein kinase C (PKC) substrate
# [3] = system: poly (Arg, Pro, Thr) 6:3:1
protein,measurement,setting,value
B1,"in vitro protein kinase phosphorylation assay ([gamma-33P]ATP incorporation, cpm)",calmodulin substrate,"hChk1 showed the highest phosphorylating activity using a calmodulin substrate or the synthetic peptide substrate, poly (Arg, Ser) 3:1"
same,"in vitro protein kinase phosphorylation assay ([gamma-33P]ATP incorporation, cpm)","poly (Arg, Ser) 3:1","hChk1 showed the highest phosphorylating activity using a calmodulin substrate or the synthetic peptide substrate, poly (Arg, Ser) 3:1"
same,"in vitro protein kinase phosphorylation assay ([gamma-33P]ATP incorporation, cpm)",[1],significant activity was also found with mylein basic protein (MBP)
same,"in vitro protein kinase phosphorylation assay ([gamma-33P]ATP incorporation, cpm)",[2],significant activity was also found with ... protein kinase C (PKC) substrate
same,"in vitro protein kinase phosphorylation assay ([gamma-33P]ATP incorporation, cpm)",[3],"significant activity was also found with ... poly (Arg, Pro, Thr) 6:3:1"
same,"in vitro protein kinase phosphorylation assay ([gamma-33P]ATP incorporation, cpm)",casein,significant activity was also found with ... casein
same,"in vitro protein kinase phosphorylation assay ([gamma-33P]ATP incorporation, cpm)",cAMP substrate,significant activity was also found with ... cAMP substrate
